Source: patent US20160279215A1, “NOVEL PEPTIDES AND COMBINATION OF PEPTIDES FOR USE IN IMMUNOTHERAPY AGAINST VARIOUS TUMORS” (immatics biotechnologies GmbH, priority 2015, published 2016)

Legend:
HLA-A*02:01 [1] = molecular target: T1, HLA-A*02:01 (Homo sapiens, UniProt P04439, D140Y/D185E/D98H/E176V/E277Q/G131W/G231S/I119V/I121R/I166T/I218V/L300P/L318F/N151K/N90K/P208A/P217A/Q86G/Q94H/R138H/R169H/T345S); experiment: MHC binding assay: UV-ligand exchange with β2m ELISA (peptide exchange yield); settings: binding to HLA-A*02:01 evaluated by peptide exchange yield (UV-ligand exchange, β2m ELISA)
T1 construct: made in house
Procedure, shortened: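 Exchange yield is an ELISA read-out: complexes diluted 100-fold, captured on streptavidin plates, detected with HRP anti-β2m and TMB at 450 nm. Standard curve from refolded HLA-A*02:01/MLA-001 (15-500 ng/ml); complexes made by UV-triggered displacement of a photolabile ligand by test peptide.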

[2] = system: CD8+ T cells of healthy HLA-A*02 donors; experiment: In vitro immunogenicity: T-cell priming with aAPCs loaded with peptide/MHC and anti-CD28, pMHC multimer readout; assay type: cell-based, human; settings: for Wells positive [%]: in vitro immunogenicity, HLA-A*02 restricted peptides, percentage of positive wells among evaluable; for donors: percentage of positive donors; for donors / wells: in vitro immunogenicity of HLA class I peptides; for wells: percentage of positive wells
Excerpt: In order to obtain information regarding the immunogenicity of the TUMAPs of the present invention, the inventors performed investigations using an in vitro T-cell priming assay based on repeated stimulations of CD8+ T cells with artificial antigen presenting cells (aAPCs) loaded with peptide/MHC complexes and anti-CD28 antibody.
In order to perform in vitro stimulations by artificial antigen presenting cells loaded with peptide-MHC complex (pMHC) and anti-CD28 antibody, the inventors first isolated CD8+ T cells from fresh HLA-A*02 leukapheresis products via positive selection using CD8 microbeads (Miltenyi Biotec, Bergisch-Gladbach, Germany) of healthy donors obtained from the University clinics Mannheim, Germany, after informed consent. PBMCs and isolated CD8+ lymphocytes were incubated in T-cell medium (TCM) until use consisting of RPMI-Glutamax (Invitrogen, Karlsruhe, Germany) supplemented with 10% heat inactivated human AB serum (PAN-Biotech, Aidenbach, Germany), 100 U/ml Penicillin/100 μg/ml Streptomycin (Cambrex, Cologne, Germany), 1 mM sodium pyruvate (CC Pro, Oberdorla, Germany), 20 μg/ml Gentamycin (Cambrex). 2.5 ng/ml IL-7 (PromoCell, Heidelberg, Germany) and 10 U/ml IL-2 (Novartis Pharma, Nürnberg, Germany) were also added to the TCM at this step. Generation of pMHC/anti-CD28 coated beads, T-cell stimulations and readout was performed in a highly defined in vitro system using four different pMHC molecules per stimulation condition and 8 different pMHC molecules per readout condition.
The purified co-stimulatory mouse IgG2a anti human CD28 Ab 9.3 (Jung et al., 1987) was chemically biotinylated using Sulfo-N-hydroxysuccinimidobiotin as recommended by the manufacturer (Perbio, Bonn, Germany). Beads used were 5.6 μm diameter streptavidin coated polystyrene particles (Bangs Laboratories, Illinois, USA).
pMHC used for positive and negative control stimulations were A*0201/MLA-001 (peptide […] (SEQ ID NO. 289) from modified Melan-A/MART-1) and A*0201/DDX5-001 ([…] from DDX5, SEQ ID NO. 290), respectively.
800.000 beads/200 μl were coated in 96-well plates in the presence of 4×12.5 ng different biotin-pMHC, washed and 600 ng biotin anti-CD28 were added subsequently in a volume of 200 μl. Stimulations were initiated in 96-well plates by co-incubating […] CD8+ T cells with 2×10^5 washed coated beads in 200 μl TCM supplemented with 5 ng/ml IL-12 (PromoCell) for 3 days at 37° C. Half of the medium was then exchanged by fresh TCM supplemented with 80 U/ml IL-2 and incubating was continued for 4 days at 37° C. This stimulation cycle was performed for a total of three times. For the pMHC multimer readout using 8 different pMHC molecules per condition, a two-dimensional combinatorial coding approach was used as previously described (Andersen et al., 2012) with minor modifications encompassing coupling to 5 different fluorochromes. Finally, multimeric analyses were performed by staining the cells with Live/dead near IR dye (Invitrogen, Karlsruhe, Germany), CD8-FITC antibody clone SK1 (BD, Heidelberg, Germany) and fluorescent pMHC multimers. For analysis, a BD LSRII SORP cytometer equipped with appropriate lasers and filters was used. Peptide specific cells were calculated as percentage of total CD8+ cells. Evaluation of multimeric analysis was done using the FlowJo software (Tree Star, Oreg., USA). In vitro priming of specific multimer+ CD8+ lymphocytes was detected by comparing to negative control stimulations.
Exemplary flow cytometry results after TUMAP-specific multimer staining for 15 peptides of the invention are shown in FIGS. 3 and 6 together with corresponding negative controls.

HLA-A*02:01 [3] = molecular target: T2, HLA-A*02:01 (human); experiment: UV ligand-exchange ELISA (anti-b2m); ++ = exchange yield >=20%
T2 construct: MHC monomers captured on streptavidin plates; the UV-sensitive peptide is cleaved and exchanged with the test peptide; also called peptide-receptive MHC molecules; MHC class I
Excerpt: Candidate peptides for T cell based therapies according to the present invention were further tested for their MHC binding capacity (affinity). The individual peptide-MHC complexes were produced by UV-ligand exchange, where a UV-sensitive peptide is cleaved upon UV-irradiation, and exchanged with the peptide of interest as analyzed. Only peptide candidates that can effectively bind and stabilize the peptide-receptive MHC molecules prevent dissociation of the MHC complexes. To determine the yield of the exchange reaction, an ELISA was performed based on the detection of the light chain (β2m) of stabilized MHC complexes. The assay was performed as generally described in Rodenko et al. (Rodenko et al., 2006).
96 well MAXISorp plates (NUNC) were coated over night with 2 ug/ml streptavidin in PBS at room temperature, washed 4× and blocked for 1 h at 37° C. in 2% BSA containing blocking buffer. Refolded HLA-A*02:01/MLA-001 monomers served as standards, covering the range of 15-500 ng/ml. Peptide-MHC monomers of the UV-exchange reaction were diluted 100 fold in blocking buffer. Samples were incubated for 1 h at 37° C., washed four times, incubated with 2 ug/ml HRP conjugated anti-β2m for 1 h at 37° C., washed again and detected with TMB solution that is stopped with […]. Absorption was measured at 450 nm. Candidate peptides that show a high exchange yield (preferably higher than 50%, most preferred higher than 75%) are generally preferred for a generation and production of antibodies or fragments thereof, and/or T cell receptors or fragments thereof, as they show sufficient avidity to the MHC molecules and prevent dissociation of the MHC complexes.

Peptide exchange (HLA-A*02:01 [1])	peptide exchange yield (HLA-A*02:01 [3]) [%]	Molecule	Wells positive [%] [2]	other results
+++ (≧50 = +++)	–	97 (KLFEKSTGL; listed as Homo sapiens) [compound 97]	+ (<20% = +)	–
++ (≧20% = ++)	–	35 (VIIKGLEEI; listed as Homo sapiens) [compound 35]	+ (<20% = +)	–
+++ (≧50 = +++)	–	248 (VLMQDSRLYL; listed as Homo sapiens) [compound 248]	++ (20%-49% = ++)	–
+++ (≧50 = +++)	–	267 (YLLDMPLWYL; listed as Homo sapiens) [compound 267]	+ (<20% = +)	–
+++ (≧50 = +++)	–	7 (ALLQALMEL; listed as Homo sapiens) [compound 7]	++ (20%-49% = ++)	–
+++ (≧50 = +++)	–	27 (GLLGKVTSV; listed as Homo sapiens) [compound 27]	+ (<20% = +)	–
+++ (≧50 = +++)	–	14 (YTFSGDVQL; listed as Homo sapiens) [compound 14]	+ (<20% = +)	–
+++ (≧50 = +++)	–	257 (KLIDHQGLYL; listed as Homo sapiens) [compound 257]	+ (<20% = +)	–
++ (≧20% = ++)	–	29 (KMISAIPTL; listed as Homo sapiens) [compound 29]	+ (<20% = +)	–
++++ (≧75% = ++++)	–	17 (GLLPSAESIKL; listed as Homo sapiens) [compound 17]	+ (<20% = +)	–
+++ (≧50 = +++)	–	263 (SIIEYLPTL; listed as Homo sapiens) [compound 263]	+ (<20% = +)	–
++ (≧20% = ++)	–	121 (ALYVQAPTV; listed as Homo sapiens) [compound 121]	+ (<20% = +)	–
+++ (≧50 = +++)	–	166 (LLGDSSFFL; listed as Homo sapiens) [compound 166]	++ (20%-49% = ++)	–
+++ (≧50 = +++)	–	77 (ALYGNVQQV; listed as Homo sapiens) [compound 77]	+ (<20% = +)	–
–	–	287 (KIQEILTQV; listed as Homo sapiens) [compound 287]	–	donors [2]: +++ (50%-69% = +++); wells [2]: + (<20% = +)
++ (≧20% = ++)	–	264 (TLHDQVHLL; listed as Homo sapiens) [compound 264]	+ (<20% = +)	–
++ (≧20% = ++)	–	66 (AMFPDTIPRV; listed as Homo sapiens) [compound 66]	+ (<20% = +)	–
+++ (≧50 = +++)	–	242 (KLQEEIPVL; listed as Homo sapiens) [compound 242]	+ (<20% = +)	–
+++ (≧50 = +++)	–	260 (ALNESLVEC; listed as Homo sapiens) [compound 260]	+ (<20% = +)	–

Peptide exchange (HLA-A*02:01 [1])	peptide exchange yield (HLA-A*02:01 [3]) [%]	Molecule	Wells positive [%] [2]	other results
+++ (≧50 = +++)	–	253 (KLLAVIHEL; listed as Homo sapiens) [compound 253]	++ (20%-49% = ++)	–
+++ (≧50 = +++)	–	48 (KISDFGLATV; listed as Homo sapiens) [compound 48]	++ (20%-49% = ++)	–
+++ (≧50 = +++)	–	11 (LLDPKTIFL; listed as Homo sapiens) [compound 11]	++ (20%-49% = ++)	–
+++ (≧50 = +++)	–	9 (SLITGQDLLSV; listed as Homo sapiens) [compound 9]	+ (<20% = +)	–
–	–	288 (SLYKGLLSV; listed as Homo sapiens) [compound 288]	–	donors [2]: ++++ (>= 70% = ++++); wells [2]: ++ (21%-49% = ++)
++ (≧20% = ++)	–	275 (AVPPPPSSV; listed as Homo sapiens) [compound 275]	++ (20%-49% = ++)	–
+++ (≧50 = +++)	–	101 (SLLEVNEASSV; listed as Homo sapiens) [compound 101]	+ (<20% = +)	–
–	20 to 50	RVLPGQAVTGV	–	–
–	20 to 50	VLLGSVVIFA	–	–
–	20 to 50	ALDTTRHEL	–	–
–	20 to 50	AMLASQTEA	–	–
–	20 to 50	GLLENSPHL	–	–
–	20 to 50	RLYGYFHDA	–	–
–	20 to 50	AILNVDEKNQV	–	–
–	20 to 50	LLPSIFLMV	–	–
–	20 to 50	TVLEEIGNRV	–	–
–	20 to 50	ILAEEPIYI	–	–
–	20 to 50	YLADTVQKL	–	–
–	20 to 50	KLLDKPEQFL (also called FMN1-001)	–	–
